Consider 1 molecule from article PMC3507626, “The Crystal Structure of the Intact E. coli RelBE Toxin-Antitoxin Complex Provides the Structural Basis for Conditional Cooperativity” (Structure(London, England:1993), 2012).

For series [1], the target named is T1, Escherichia coli RelE R81A (untagged, full-length toxin) (Escherichia coli, UniProt P0C077 1-95, R81A).
T1 construct: RelE toxin of the relBE locus, Escherichia coli, 95 residues, R81A active-site mutant; also called R81A active-site mutant
T1 sequence (looked up): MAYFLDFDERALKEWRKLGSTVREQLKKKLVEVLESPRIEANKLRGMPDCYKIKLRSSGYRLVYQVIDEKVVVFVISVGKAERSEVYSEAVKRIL
As to the kind of experiment: crystal structure; RelB2E2 reconstituted from purified RelB and RelE R81A; crystals at 4°C, 1.6-2.0 M ammonium sulfate, 0.1 M Na acetate pH 4.6; space group P6(1)22; 2.8 Å. The settings on record: both partners purified.

Series [2] deals with the molecule itself. Briefly: not stated; isolated RelB and isolated RelE in solution; data not shown.

B1: Escherichia coli RelB (untagged, intact antitoxin) (natural protein, UniProt P0C079 1-79, looked up)
chain: MGSINLRIDDELKARSYAALEKMGVTPSEALRLMLEYIADNERLPFKQTLLSDEDAELVEIVKERLRNPKPVRVTLDEL
notes: RelB antitoxin of the relBE locus, Escherichia coli, 79 residues (residues 2-79 of 79 seen in the structure); Untagged; Details of purification are in the Supplemental Experimental Procedures; source: E. coli, plasmid pSC2524HE encoding His-tagged RelE R81A and untagged RelB; purified by denaturation, ion exchange, gel filtration
B1: in series [1], the binding result is recorded as “binds”. The “stoichiometry N” value in series [2] was found to be 4.

The stoichiometry N is the number of molecules, sites or subunits per partner or assembly.
